Measured values from the Human Domainome abundance scans (Beltran et al. 2025).
± gives the uncertainty stated by the source.

B1: Death-inducer obliterator 1, residues 263 to 321; numbered along this chain, Q9BTC0 (parent)
chain: GYDPNALYCICRQPHNNRFMICCDRCEEWFHGDCVGISEARGRLLERNGEDYICPNCTI

Variants of: B1
Experiment: abundance fitness (aPCA) (normalised: wild type 0, dead -1); higher = more abundant; growth selection in yeast, the domain comes from the species named
Details: Homo sapiens
GYDPNALYCICRQPHNNRFMLCCDRCEEWFHGDCVGISEARGRLLERNGEDYICPNCTI [I21L] gave an abundance fitness of -0.051 ± 0.047. With GYDPNALYCICRQPHNNRFMVCCDRCEEWFHGDCVGISEARGRLLERNGEDYICPNCTI [I21V] the abundance fitness was 0.132 ± 0.068. In the case of GYDPNALYCICRQPHNNRFMHCCDRCEEWFHGDCVGISEARGRLLERNGEDYICPNCTI [I21H], the abundance fitness is reported as -0.4 ± 0.097. In the case of GYDPNALYCICRQPHNNRFMMCCDRCEEWFHGDCVGISEARGRLLERNGEDYICPNCTI [I21M], the abundance fitness is reported as -0.104 ± 0.077. Variant GYDPNALYCICRQPHNNRFMFCCDRCEEWFHGDCVGISEARGRLLERNGEDYICPNCTI [I21F] has an abundance fitness of -0.243 ± 0.083. For GYDPNALYCICRQPHNNRFMDCCDRCEEWFHGDCVGISEARGRLLERNGEDYICPNCTI [I21D], the abundance fitness was -0.692 ± 0.21. GYDPNALYCICRQPHNNRFMACCDRCEEWFHGDCVGISEARGRLLERNGEDYICPNCTI [I21A] showed an abundance fitness of -0.144 ± 0.1. In the case of GYDPNALYCICRQPHNNRFMTCCDRCEEWFHGDCVGISEARGRLLERNGEDYICPNCTI [I21T], the abundance fitness is reported as -0.177 ± 0.074. Variant GYDPNALYCICRQPHNNRFMKCCDRCEEWFHGDCVGISEARGRLLERNGEDYICPNCTI [I21K] has an abundance fitness of -0.04 ± 0.091. GYDPNALYCICRQPHNNRFMQCCDRCEEWFHGDCVGISEARGRLLERNGEDYICPNCTI [I21Q] showed an abundance fitness of -0.164 ± 0.11. In the case of GYDPNALYCICRQPHNNRFMRCCDRCEEWFHGDCVGISEARGRLLERNGEDYICPNCTI [I21R], the abundance fitness is reported as -0.156 ± 0.07. GYDPNALYCICRQPHNNRFMYCCDRCEEWFHGDCVGISEARGRLLERNGEDYICPNCTI [I21Y] gave an abundance fitness of 0.036 ± 0.094. GYDPNALYCICRQPHNNRFMWCCDRCEEWFHGDCVGISEARGRLLERNGEDYICPNCTI [I21W] showed an abundance fitness of -0.582 ± 0.32. With GYDPNALYCICRQPHNNRFMGCCDRCEEWFHGDCVGISEARGRLLERNGEDYICPNCTI [I21G] the abundance fitness was -0.575 ± 0.22. With GYDPNALYCICRQPHNNRFMECCDRCEEWFHGDCVGISEARGRLLERNGEDYICPNCTI [I21E] the abundance fitness was -0.494 ± 0.16. With GYDPNALYCICRQPHNNRFMICCDRAEEWFHGDCVGISEARGRLLERNGEDYICPNCTI [C26A] the abundance fitness was -0.411 ± 0.13. GYDPNALYCICRQPHNNRFMICCDRDEEWFHGDCVGISEARGRLLERNGEDYICPNCTI [C26D] showed an abundance fitness of -0.808 ± 0.17. Variant GYDPNALYCICRQPHNNRFMICCDRGEEWFHGDCVGISEARGRLLERNGEDYICPNCTI [C26G] has an abundance fitness of -0.72 ± 0.099. GYDPNALYCICRQPHNNRFMICCDRKEEWFHGDCVGISEARGRLLERNGEDYICPNCTI [C26K] gave an abundance fitness of -0.863 ± 0.24. Work on GYDPNALYCICRQPHNNRFMICCDRIEEWFHGDCVGISEARGRLLERNGEDYICPNCTI [C26I] yielded an abundance fitness of -0.578 ± 0.22. Work on GYDPNALYCICRQPHNNRFMICCDRFEEWFHGDCVGISEARGRLLERNGEDYICPNCTI [C26F] yielded an abundance fitness of -1.06 ± 0.23. Variant GYDPNALYCICRQPHNNRFMICCDRHEEWFHGDCVGISEARGRLLERNGEDYICPNCTI [C26H] has an abundance fitness of -0.672 ± 0.21. GYDPNALYCICRQPHNNRFMICCDREEEWFHGDCVGISEARGRLLERNGEDYICPNCTI [C26E] gave an abundance fitness of -0.632 ± 0.14. For GYDPNALYCICRQPHNNRFMICCDCCEEWFHGDCVGISEARGRLLERNGEDYICPNCTI [R25C], the abundance fitness was -0.191 ± 0.1. Work on GYDPNALYCICRQPHNNRFMICCDQCEEWFHGDCVGISEARGRLLERNGEDYICPNCTI [R25Q] yielded an abundance fitness of 0.124 ± 0.061. Variant GYDPNALYCICRQPHNNRFMICCDSCEEWFHGDCVGISEARGRLLERNGEDYICPNCTI [R25S] has an abundance fitness of -0.019 ± 0.043. For GYDPNALYCICRQPHNNRFMICCDGCEEWFHGDCVGISEARGRLLERNGEDYICPNCTI [R25G], the abundance fitness was -0.085 ± 0.075. For GYDPNALYCICRQPHNNRFMICCDTCEEWFHGDCVGISEARGRLLERNGEDYICPNCTI [R25T], the abundance fitness was 0.039 ± 0.096. GYDPNALYCICRQPHNNRFMICCDNCEEWFHGDCVGISEARGRLLERNGEDYICPNCTI [R25N] showed an abundance fitness of 0.101 ± 0.12. In the case of GYDPNALYCICRQPHNNRFMICCDECEEWFHGDCVGISEARGRLLERNGEDYICPNCTI [R25E], the abundance fitness is reported as 0.163 ± 0.13. GYDPNALYCICRQPHNNRFMICCDICEEWFHGDCVGISEARGRLLERNGEDYICPNCTI [R25I] gave an abundance fitness of -0.197 ± 0.11. With GYDPNALYCICRQPHNNRFMICCDKCEEWFHGDCVGISEARGRLLERNGEDYICPNCTI [R25K] the abundance fitness was 0.118 ± 0.065. In the case of GYDPNALYCICRQPHNNRFMICCDWCEEWFHGDCVGISEARGRLLERNGEDYICPNCTI [R25W], the abundance fitness is reported as -0.261 ± 0.1. In the case of GYDPNALYCICRQPHNNRFMICCDHCEEWFHGDCVGISEARGRLLERNGEDYICPNCTI [R25H], the abundance fitness is reported as -0.032 ± 0.12. For GYDPNALYCICRQPHNNRFMICCDPCEEWFHGDCVGISEARGRLLERNGEDYICPNCTI [R25P], the abundance fitness was -0.052 ± 0.077. GYDPNALYCICRQPHNNRFMICCDFCEEWFHGDCVGISEARGRLLERNGEDYICPNCTI [R25F] gave an abundance fitness of -0.068 ± 0.075. With GYDPNALYCICRQPHNNRFMICCDACEEWFHGDCVGISEARGRLLERNGEDYICPNCTI [R25A] the abundance fitness was 0.125 ± 0.076. Variant GYDPNALYCICRQPHNNRFMICCDVCEEWFHGDCVGISEARGRLLERNGEDYICPNCTI [R25V] has an abundance fitness of 0.063 ± 0.1. GYDPNALYCICRQPHNNRFMICCDDCEEWFHGDCVGISEARGRLLERNGEDYICPNCTI [R25D] showed an abundance fitness of -0.027 ± 0.18. GYDPNALYCICRQPHNNRFMICCDMCEEWFHGDCVGISEARGRLLERNGEDYICPNCTI [R25M] gave an abundance fitness of -0.023 ± 0.054. For GYDPNALYCICRQPHNNRFMICCDLCEEWFHGDCVGISEARGRLLERNGEDYICPNCTI [R25L], the abundance fitness was -0.057 ± 0.059. GYDPNALYCICRQPHNNRFMICVDRCEEWFHGDCVGISEARGRLLERNGEDYICPNCTI [C23V] gave an abundance fitness of -1.08 ± 0.11. Work on GYDPNALYCICRQPHNNRFMICYDRCEEWFHGDCVGISEARGRLLERNGEDYICPNCTI [C23Y] yielded an abundance fitness of -1.17 ± 0.17. GYDPNALYCICRQPHNNRFMICRDRCEEWFHGDCVGISEARGRLLERNGEDYICPNCTI [C23R] gave an abundance fitness of -0.792 ± 0.095. GYDPNALYCICRQPHNNRFMICSDRCEEWFHGDCVGISEARGRLLERNGEDYICPNCTI [C23S] showed an abundance fitness of -0.594 ± 0.084.
